Reference: US20210371508A1

Assays:
[1] = biological target: transferrin receptor 1 (TFRC) (human) (UniProt P02786); experiment: IP with IgG control, lysate of 231 cells with V5-NMES1 OE pre-incubated with NM-1; western blot for TFRC
[2] = biological target: transferrin receptor 1 (TFRC) (human) (UniProt P02786); experiment: IP with IgG control, lysate of 231 cells with V5-NMES1 OE pre-incubated with isotype ctrl; western blot for TFRC
V5-hNMES1 (human) [3] = biological target: V5-hNMES1 (human) (UniProt Q9C002); experiment: IP with IgG control, lysate of 231 cells with V5-NMES1 OE pre-incubated with NM-1; western blot for NMES1; hardly any band
V5-hNMES1 (human) [4] = biological target: V5-hNMES1 (human) (UniProt Q9C002); experiment: IP with IgG control, lysate of 231 cells with V5-NMES1 OE pre-incubated with isotype ctrl; western blot for NMES1; a band is visible in this control lane

Sequence of transferrin receptor 1 (TFRC) (human) (P02786 whole entry): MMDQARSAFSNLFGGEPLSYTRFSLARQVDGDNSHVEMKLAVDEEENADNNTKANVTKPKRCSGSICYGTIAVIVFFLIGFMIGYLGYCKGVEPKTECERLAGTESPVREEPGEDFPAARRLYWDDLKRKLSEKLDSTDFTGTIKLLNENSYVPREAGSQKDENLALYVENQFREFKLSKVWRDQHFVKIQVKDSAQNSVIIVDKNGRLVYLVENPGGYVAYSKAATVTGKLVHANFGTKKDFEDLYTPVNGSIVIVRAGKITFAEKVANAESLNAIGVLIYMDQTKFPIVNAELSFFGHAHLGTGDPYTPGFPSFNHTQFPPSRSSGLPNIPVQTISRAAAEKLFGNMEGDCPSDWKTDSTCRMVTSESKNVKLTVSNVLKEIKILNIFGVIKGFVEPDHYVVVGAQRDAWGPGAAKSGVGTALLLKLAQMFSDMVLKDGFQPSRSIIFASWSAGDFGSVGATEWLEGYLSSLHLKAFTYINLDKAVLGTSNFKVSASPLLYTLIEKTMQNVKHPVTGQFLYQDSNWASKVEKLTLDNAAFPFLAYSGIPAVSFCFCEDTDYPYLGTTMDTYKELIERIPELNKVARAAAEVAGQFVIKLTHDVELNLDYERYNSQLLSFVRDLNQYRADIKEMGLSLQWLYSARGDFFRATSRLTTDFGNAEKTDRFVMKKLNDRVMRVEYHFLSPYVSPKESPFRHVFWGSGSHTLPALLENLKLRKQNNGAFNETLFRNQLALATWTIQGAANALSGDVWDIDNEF
Sequence of V5-hNMES1 (human) (Q9C002 whole entry): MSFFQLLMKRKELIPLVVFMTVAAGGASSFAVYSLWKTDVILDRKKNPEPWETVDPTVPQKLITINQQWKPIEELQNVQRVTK

**Q.** Which results are given for isotype IgG control (antibody)?
**A.** number under the TFRC band (band intensity, not named on the sheet) [1]: 27.4; number under the TFRC band (band intensity, not named on the sheet) [2]: 24; number under the NMES1 band (band intensity, not named on the sheet) (V5-hNMES1 (human) [3]): 15.8; number under the NMES1 band (band intensity, not named on the sheet) (V5-hNMES1 (human) [4]): 38.5
